Target: T1, TolC (E. coli, UniProt P02930 23-493)
T1 sequence: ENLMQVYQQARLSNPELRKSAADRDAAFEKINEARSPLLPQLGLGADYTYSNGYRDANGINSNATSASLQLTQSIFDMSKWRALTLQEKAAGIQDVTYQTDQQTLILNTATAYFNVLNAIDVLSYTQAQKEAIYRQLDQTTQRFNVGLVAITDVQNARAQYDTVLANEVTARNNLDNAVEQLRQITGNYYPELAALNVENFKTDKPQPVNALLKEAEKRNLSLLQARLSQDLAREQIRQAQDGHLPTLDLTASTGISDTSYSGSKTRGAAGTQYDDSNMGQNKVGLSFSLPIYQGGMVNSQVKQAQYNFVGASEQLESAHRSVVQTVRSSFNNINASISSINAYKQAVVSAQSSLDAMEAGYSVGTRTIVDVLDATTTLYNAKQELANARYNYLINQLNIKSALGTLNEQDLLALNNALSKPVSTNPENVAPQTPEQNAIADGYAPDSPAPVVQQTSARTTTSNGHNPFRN
Assay: SEC

B1: residues 1-190 of colicin E1 (colE1-T) (domain or fragment)
chain: METAVAYYKDGVPYDDKGQVIITLLNGTPDGSGSGGGGGKGGSKSESSAAIHATAKWSTAQLKKTQAEQAARAKAAAEAQAKAKANRDALTQRLKDIVNEALRHNASRTPSATELAHANNAAMQAEDERLRLAKAEEKARKEAEAAEKAFQEAEQRRKEIEREKAETERQLKLAEAEEKRLAALSEEAKA
B1: binds.

From doi:10.1101/2022.04.28.489915 (bioRxiv, 2022)
